Laboratory results as given in patent US20250326797A1, “PROTEIN-PROTEIN INTERACTION MODULATORS AND METHODS FOR DESIGN THEREOF” (RAMOT AT TEL AVIV UNIVERSITY LTD., priority 2022, published 2025).

What was measured:
[1] = target: T1, CaN PxIxIT binding site (CaNA, catalytic subunit of calcineurin) (Homo sapiens, UniProt Q08209, L343A/M347D/Y341S); assay: Fluorescence Polarization (FP) competition assay with FITC-labeled PVIVIT peptide; details: for ability to compete with PVIVIT for CaN binding: result in words; for IC50: competition with 100 nM FITC-labeled PVIVIT peptide, 4 uM CaNA, single site inhibition model, read-out: IC50: half maximal inhibitory concentration
T1 construct: GST; made in house; host or cells: E. coli BL21
T1 sequence (Q08209 2-347 Y341S/L343A/M347D): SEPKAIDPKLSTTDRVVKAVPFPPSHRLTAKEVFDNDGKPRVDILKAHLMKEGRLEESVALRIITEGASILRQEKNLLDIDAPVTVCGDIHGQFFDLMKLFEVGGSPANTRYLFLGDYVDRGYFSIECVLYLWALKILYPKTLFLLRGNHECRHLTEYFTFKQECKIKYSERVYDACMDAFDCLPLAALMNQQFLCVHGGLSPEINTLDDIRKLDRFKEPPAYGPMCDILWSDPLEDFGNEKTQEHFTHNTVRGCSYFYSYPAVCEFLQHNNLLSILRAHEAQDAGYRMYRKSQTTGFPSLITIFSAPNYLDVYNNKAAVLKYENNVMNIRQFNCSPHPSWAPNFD
Protocol: (§1) Fluorescence Polarization (FP) competition assay. Fluorescence measurements were performed on samples arrayed in a 96-well plate using Biotek HybridHI reader equipped with a polarized optic system. All measurements were done in triplicate. […] Experimental polarization data from simple and competitive binding experiments were fitted using GraphPad Prism7, with error bars representing standard deviation.
Selected peptides were synthesized and their ability to specifically bind the CaN PxIxIT binding site was evaluated by FP competition assay.
(§2) Polarization levels were read and normalized values were fitted to a single site model.
The above peptides are synthesized and their ability to specifically bind the CaN PxIxIT binding site is evaluated by FP competition assay. […] After fitting the polarization values to a single site inhibition model, the corresponding IC50 values are extracted.

[2] = target: T2, Catalytic subunit of calcineurin (CaNA), residues 2-347 with substitutions Y341S, L343A and M347D (UniProt Q08209 2-347); assay: FP competition assay against FITC-PVIVIT (100 nM) on CaNA (4 uM); single site inhibition fit
T2 construct: range 2-347; Expressed as a cleavable GST fusion and purified on a GST column and by size exclusion; The microarray used GST-tagged CaN; also called Cn
T2 sequence (Q08209 2-347 Y341S/L343A/M347D): as above
Protocol: as §1
(§3) Selected peptides were synthesized and their ability to specifically bind the CaN PxIxIT binding site was evaluated by FP competition assay. […] After fitting the polarization values to a single site inhibition model, the corresponding IC₅₀ values were extracted and reported in Table 2.

[3] = target: T2, Catalytic subunit of calcineurin …; assay: fluorescence polarization competition; unlabeled peptide titrated against 100 nM FITC-labeled PVIVIT bound to 4 uM CaNA
Protocol: as §1, §3, §2

[4] = target: T2, Catalytic subunit of calcineurin …; assay: FP competition assay against FITC-PVIVIT on CaNA
Protocol: as §1, §3

Ac-ADGAGVGIVITVTEAE-NH2 [rbmAKAP79_2] was tested, and the “ability to compete with PVIVIT for CaN binding” value [1] was “successfully competed with PVIVIT binding”.

“Ac-ADEAVPQIIISAEELP-NH2 [TRESK, reference compound]” showed an IC50 [1] of 54 µM.

Ac-ADEAIPEIVISKPEEP-NH2 [rbmTRESK] was tested, and the IC50 [1] was 14 µM and the “IC50 relative to closest natural counterpart (human TRESK fragment)” value ([1]; rbmTRESK vs natural TRESK fragment) was “almost four times lower”.

In the case of Ac-AAGAGVGIVITVTEAE-NH2 [rbmAKAP79], the “ability to compete with PVIVIT for CaN binding” value [1] is reported as “successfully competed with PVIVIT binding”.

B1: rbmTRESK_2 (designed binder)
peptide: Ac-ADEAIPEITITSAELP-NH2
For B1, the IC50 [2] was 60 µM.

B2: rbmRIPOR2 (designed binder)
peptide: Ac-ASVSNPEITVTSAETE-NH2
Work on B2 yielded an IC50 [2] of 79 µM.

B3: rbmRIPOR2_2 (designed binder)
peptide: Ac-HVSSSPRITITPTQHR-NH2
B3 was tested, and the IC50 [2] was 200 µM.

B4: rbmTRESK (designed binder)
peptide: Ac-ADEAIPEIVISKPEEP-NH2
With B4 the “IC50 (read off the curve)” value [3] was about 10 µM and the “fold lower IC50 than the CaN-binding fragment of human TRESK protein (SEQ ID NO: 3)” value [4] was about 4 fold.

B5: rbmAKAP79 (designed binder)
peptide: Ac-AAGAGVGIVITVTEAE-NH2
For B5, the IC50 [2] was 57 µM.

B6: rbmAKAP79_2 (designed binder)
peptide: Ac-ADGAGVGIVITVTEAE-NH2
For B6, the IC50 [2] was 69 µM.
